To fix the notation:
B1: FEM1B (parent)
chain: TLAALLLNRSESDIRYLLGYVSQQ

94 variants from the supplement of paper PMC10567573 can be followed below.
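Also: lentivirally expressed fusions sorted by FACS into six bins by GFP to DsRed ratio, PSI derived from sequencing read proportions per bin multiplied by bin number.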

The variants in the data set derive from B1. Nature of the data set: protein stability index of a GFP-peptide fusion (GPS, HEK-293T) (PSI 1-6); higher = more stable. Particulars: c terminus: a fixed tail appended.
In the case of TLAALLLNRSESDIPYLLGYVSQQ [R15P], the protein stability index worked out at 2.03.

TLAALLLNRSESDIIYLLGYVSQQ [R15I]: the protein stability index was found to be 2.81.

Turning to TLAALLLNRSESDIFYLLGYVSQQ [R15F], the protein stability index is 3.37.

Take TLAALLLNRSESDITYLLGYVSQQ [R15T]: the protein stability index is 3.37.

In the case of TLAALLLNRSESDICYLLGYVSQQ [R15C], the protein stability index stood at 2.14.

Consider TLAALLLNRSESDINYLLGYVSQQ [R15N], for which the protein stability index amounted to 2.55.

As to TLAALLLNRSESDIHYLLGYVSQQ [R15H], the protein stability index is 2.4.

Take TLAALLLNRSESDIAYLLGYVSQQ [R15A]: the protein stability index was determined as 2.31.

Regarding TLAALLLNRSESDIKYLLGYVSQQ [R15K], the protein stability index came out at 2.3.

In the case of TLAALLLNRSESDIMYLLGYVSQQ [R15M], the protein stability index was found to be 3.35.

As for TLAALLLNRSESDISYLLGYVSQQ [R15S], the protein stability index was determined as 3.23.

Regarding TLAALLLNRSESDIDYLLGYVSQQ [R15D], the protein stability index stood at 2.12.

For the variant TLAALLLNRSESDIQYLLGYVSQQ [R15Q], the protein stability index amounted to 1.61.

As for TLAALLLNRSESDIVYLLGYVSQQ [R15V], the protein stability index turned out to be 1.75.

TLAALLLNRSESDIYYLLGYVSQQ [R15Y]: the protein stability index is 3.31.

As to TLAALLLNRSESDIEYLLGYVSQQ [R15E], the protein stability index is 2.72.

As for TLAALLLNRSESDILYLLGYVSQQ [R15L], the protein stability index came out at 3.36.

Take TLAALLLNRSESMIRYLLGYVSQQ [D13M]: the protein stability index worked out at 3.99.

As to TLAALLLNRSESKIRYLLGYVSQQ [D13K], the protein stability index was 2.79.

For TLAALLLNRSESRIRYLLGYVSQQ [D13R], the protein stability index was 2.72.

As to TLAALLLNRSESGIRYLLGYVSQQ [D13G], the protein stability index is 2.81.

On to TLAALLLNRSESQIRYLLGYVSQQ [D13Q], for which the protein stability index was determined as 2.04.

In the case of TLAALLLNRSESCIRYLLGYVSQQ [D13C], the protein stability index is 3.94.

As to TLAALLLNRSESPIRYLLGYVSQQ [D13P], the protein stability index came out at 2.13.

As to TLAALLLNRSESNIRYLLGYVSQQ [D13N], the protein stability index was determined as 2.77.

In the case of TLAALLLNRSESIIRYLLGYVSQQ [D13I], the protein stability index turned out to be 3.07.

For the variant TLAALLLNRSESVIRYLLGYVSQQ [D13V], the protein stability index turned out to be 3.19.

On to TLAALLLNRSESFIRYLLGYVSQQ [D13F], for which the protein stability index amounted to 1.76.

Consider TLAALLLNRSESTIRYLLGYVSQQ [D13T], for which the protein stability index amounted to 2.88.

Regarding TLAALLLNRSESWIRYLLGYVSQQ [D13W], the protein stability index worked out at 4.04.

With TLAALLLNRSESLIRYLLGYVSQQ [D13L], the protein stability index came out at 3.62.

For the variant TLAALLLNRSESHIRYLLGYVSQQ [D13H], the protein stability index came out at 3.21.

Turning to TLAALLLNRSESSIRYLLGYVSQQ [D13S], the protein stability index came out at 2.62.

TLAALLLNRSESAIRYLLGYVSQQ [D13A]: the protein stability index was 2.76.

For TLAALLLNRSESEIRYLLGYVSQQ [D13E], the protein stability index turned out to be 3.26.

In the case of TLAALLLNRSESYIRYLLGYVSQQ [D13Y], the protein stability index amounted to 3.38.

On to TLAALTLNRSESDIRYLLGYVSQQ [L6T], for which the protein stability index stood at 1.76.

Turning to TLAALNLNRSESDIRYLLGYVSQQ [L6N], the protein stability index turned out to be 1.8.

For the variant TLAALFLNRSESDIRYLLGYVSQQ [L6F], the protein stability index was found to be 2.65.

Take TLAALPLNRSESDIRYLLGYVSQQ [L6P]: the protein stability index worked out at 2.21.

For TLAALILNRSESDIRYLLGYVSQQ [L6I], the protein stability index amounted to 2.88.

Take TLAALSLNRSESDIRYLLGYVSQQ [L6S]: the protein stability index was determined as 1.82.

For the variant TLAALQLNRSESDIRYLLGYVSQQ [L6Q], the protein stability index came to 1.38.

On to TLAALVLNRSESDIRYLLGYVSQQ [L6V], for which the protein stability index was determined as 2.22.

As to TLAALGLNRSESDIRYLLGYVSQQ [L6G], the protein stability index is 1.97.

For the variant TLAALHLNRSESDIRYLLGYVSQQ [L6H], the protein stability index is 1.85.

As to TLAALKLNRSESDIRYLLGYVSQQ [L6K], the protein stability index came to 2.37.

In the case of TLAALMLNRSESDIRYLLGYVSQQ [L6M], the protein stability index was found to be 2.56.

TLAALRLNRSESDIRYLLGYVSQQ [L6R]: the protein stability index was determined as 1.76.

For TLAALLLWRSESDIRYLLGYVSQQ [N8W], the protein stability index turned out to be 4.75.

On to TLAALLLDRSESDIRYLLGYVSQQ [N8D], for which the protein stability index stood at 3.63.

TLAALLLSRSESDIRYLLGYVSQQ [N8S]: the protein stability index came out at 2.67.

Regarding TLAALLLIRSESDIRYLLGYVSQQ [N8I], the protein stability index was determined as 1.53.

TLAALLLMRSESDIRYLLGYVSQQ [N8M]: the protein stability index was determined as 4.03.

On to TLAALLLARSESDIRYLLGYVSQQ [N8A], for which the protein stability index came out at 2.48.

As to TLAALLLTRSESDIRYLLGYVSQQ [N8T], the protein stability index was found to be 2.38.

Take TLAALLLFRSESDIRYLLGYVSQQ [N8F]: the protein stability index worked out at 2.45.

Turning to TLAALLLGRSESDIRYLLGYVSQQ [N8G], the protein stability index was found to be 2.04.

In the case of TLAALLLHRSESDIRYLLGYVSQQ [N8H], the protein stability index came to 2.92.

As for TLAALLLKRSESDIRYLLGYVSQQ [N8K], the protein stability index was found to be 4.32.

Take TLAALLLRRSESDIRYLLGYVSQQ [N8R]: the protein stability index amounted to 3.

With TLAALLLCRSESDIRYLLGYVSQQ [N8C], the protein stability index amounted to 4.47.

Take TLAALLLQRSESDIRYLLGYVSQQ [N8Q]: the protein stability index worked out at 3.3.

On to TLAALLLNRHESDIRYLLGYVSQQ [S10H], for which the protein stability index amounted to 4.65.

Consider TLAALLLNRCESDIRYLLGYVSQQ [S10C], for which the protein stability index stood at 2.4.

In the case of TLAALLLNRKESDIRYLLGYVSQQ [S10K], the protein stability index is 2.28.

On to TLAALLLNREESDIRYLLGYVSQQ [S10E], for which the protein stability index amounted to 3.2.

Take TLAALLLNRWESDIRYLLGYVSQQ [S10W]: the protein stability index came to 3.07.

As to TLAALLLNRNESDIRYLLGYVSQQ [S10N], the protein stability index is 2.29.

Regarding TLAALLLNRAESDIRYLLGYVSQQ [S10A], the protein stability index is 3.37.

For TLAALLLNRFESDIRYLLGYVSQQ [S10F], the protein stability index was determined as 3.1.

On to TLAALLLNRYESDIRYLLGYVSQQ [S10Y], for which the protein stability index turned out to be 2.41.

For the variant TLAALLLNRMESDIRYLLGYVSQQ [S10M], the protein stability index was 1.87.

For the variant TLAALLLNRVESDIRYLLGYVSQQ [S10V], the protein stability index is 1.87.

Regarding TLAALLLNRIESDIRYLLGYVSQQ [S10I], the protein stability index was determined as 3.57.

As to TLAALLLNRLESDIRYLLGYVSQQ [S10L], the protein stability index was found to be 3.05.

TLAALLLNRGESDIRYLLGYVSQQ [S10G]: the protein stability index was 1.53.

Regarding TLAALLLNRQESDIRYLLGYVSQQ [S10Q], the protein stability index is 4.48.

With TLAALLLNRPESDIRYLLGYVSQQ [S10P], the protein stability index was determined as 3.81.

As for TLAALLLNHSESDIRYLLGYVSQQ [R9H], the protein stability index amounted to 1.58.

In the case of TLAALLLNWSESDIRYLLGYVSQQ [R9W], the protein stability index is 2.79.

On to TLAALLLNPSESDIRYLLGYVSQQ [R9P], for which the protein stability index came to 1.92.

Consider TLAALLLNTSESDIRYLLGYVSQQ [R9T], for which the protein stability index worked out at 2.94.

On to TLAALLLNFSESDIRYLLGYVSQQ [R9F], for which the protein stability index was 2.9.

As for TLAALLLNSSESDIRYLLGYVSQQ [R9S], the protein stability index was determined as 2.7.

Turning to TLAALLLNGSESDIRYLLGYVSQQ [R9G], the protein stability index was determined as 3.4.

Take TLAALLLNLSESDIRYLLGYVSQQ [R9L]: the protein stability index is 3.24.

TLAALLLNKSESDIRYLLGYVSQQ [R9K]: the protein stability index was found to be 1.96.

For the variant TLAALLLNDSESDIRYLLGYVSQQ [R9D], the protein stability index was 2.9.

Regarding TLAALLLNCSESDIRYLLGYVSQQ [R9C], the protein stability index came to 2.13.

For the variant TLAALLLNISESDIRYLLGYVSQQ [R9I], the protein stability index was 3.29.

TLAALLLNYSESDIRYLLGYVSQQ [R9Y]: the protein stability index came to 2.52.

Take TLAALLLNESESDIRYLLGYVSQQ [R9E]: the protein stability index amounted to 1.98.

Take TLAALLLNNSESDIRYLLGYVSQQ [R9N]: the protein stability index amounted to 2.57.
